Reference: the supplement of paper PMC7125110
± gives the standard error. For some assays here: Variants at the floor of the assay were thinned out.

B1: glmS ribozyme (parent)
chain: AUAAAAGCGCCAGAACUACAGAAAUGUAGUUGACGAGGAGGAGGUUUAUCGAAUUUUCGGCGGAUGCCUCCAAA

Experiments:
Details in all cases: with glucosamine-6-phosphate
glucosamine-6-phosphate [1] = variants of: B1; experiment: kcat; higher = faster cleavage; RNA array
How it was run: (§1)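 Barcoded ribozyme variants were transcribed in situ on sequenced MiSeq chips by E. coli RNA polymerase. At 37 °C, a hybridised Cy3 probe tracked them while glucosamine-6-phosphate (40 μM to 10 mM) in HEPES/KCl/Mg(OAc)2 buffer flowed in and tiles were imaged over ~14 h. Per-tile medians of signals normalised to baseline and to non-cleaving reference variants were fit to one- or two-exponential decays, giving kobs. kcat and KM came from weighted Michaelis–Menten fits across concentrations.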

glucosamine-6-phosphate [2] = variants of: B1; experiment: KM; higher = weaker cofactor use; RNA array
How it was run: as §1

glucosamine-6-phosphate [3] = variants of: B1; experiment: self-cleavage kobs at 640 uM GlcN6P; higher = faster cleavage; RNA array
How it was run: as §1

glucosamine-6-phosphate [4] = variants of: B1; experiment: self-cleavage kobs at 2500 uM GlcN6P; higher = faster cleavage; RNA array
How it was run: as §1

glucosamine-6-phosphate [5] = variants of: B1; experiment: self-cleavage kobs at 10000 uM GlcN6P; higher = faster cleavage; RNA array
How it was run: as §1

glucosamine-6-phosphate [6] = variants of: B1; experiment: self-cleavage kobs at 40 uM GlcN6P; higher = faster cleavage; RNA array
How it was run: as §1

glucosamine-6-phosphate [7] = variants of: B1; experiment: self-cleavage kobs at 160 uM GlcN6P; higher = faster cleavage; RNA array
How it was run: as §1

| Variant | kcat (glucosamine-6-phosphate [1]) | KM (glucosamine-6-phosphate [2]) | self-cleavage kobs at 640 uM GlcN6P (glucosamine-6-phosphate [3]) | self-cleavage kobs at 2500 uM GlcN6P (glucosamine-6-phosphate [4]) | self-cleavage kobs at 10000 uM GlcN6P (glucosamine-6-phosphate [5]) | self-cleavage kobs at 40 uM GlcN6P (glucosamine-6-phosphate [6]) | self-cleavage kobs at 160 uM GlcN6P (glucosamine-6-phosphate [7]) |
| --- | --- | --- | --- | --- | --- | --- | --- |
| U45A C67G | 0.000766 ± 0.00012 s⁻¹ | 2290 ± 680 µM | 0.000163 ± 2.6e-05 s⁻¹ | 0.000606 ± 0.00012 s⁻¹ | 0.0006 ± 6.8e-05 s⁻¹ |  |  |
| U46C C67A | 0.000818 ± 0.00012 s⁻¹ | 1380 ± 390 µM | 0.000284 ± 5.6e-05 s⁻¹ | 0.00062 ± 0.00012 s⁻¹ | 0.000676 ± 0.00011 s⁻¹ | 3.57e-05 ± 1.7e-05 s⁻¹ | 6.58e-05 ± 2.1e-05 s⁻¹ |
| U46C C67G | 0.000658 ± 5.5e-05 s⁻¹ | 1560 ± 320 µM | 0.000154 ± 5.6e-05 s⁻¹ | 0.000431 ± 6.7e-05 s⁻¹ | 0.000561 ± 6.7e-05 s⁻¹ |  | 6.94e-05 ± 1.9e-05 s⁻¹ |
| U46C A52U | 0.0006 ± 0.00022 s⁻¹ |  | 3.24e-05 ± 1.6e-05 s⁻¹ | 6.32e-05 ± 1.1e-05 s⁻¹ | 0.000199 ± 2.3e-05 s⁻¹ | < 1e-05 s⁻¹ |  |
| G43C A53G C68U | 0.00152 ± 0.00074 s⁻¹ |  | 0.000435 ± 0.00011 s⁻¹ | 0.000879 ± 0.00022 s⁻¹ |  | 5.01e-05 ± 1.4e-05 s⁻¹ | 0.000102 ± 2.7e-05 s⁻¹ |
| U46A G62A | < 1e-05 s⁻¹ |  |  | < 1e-05 s⁻¹ |  | < 1e-05 s⁻¹ |  |
| U46A C68G | 2.56e-05 ± 5.1e-06 s⁻¹ |  |  | 3.32e-05 ± 1.5e-05 s⁻¹ |  | < 1e-05 s⁻¹ |  |
| G44A U45G | 0.00378 ± 0.00039 s⁻¹ | 1850 ± 280 µM | 0.000889 ± 0.00016 s⁻¹ | 0.00218 ± 0.00031 s⁻¹ | 0.0033 ± 0.0007 s⁻¹ | 9.22e-05 ± 1.8e-05 s⁻¹ | 0.000285 ± 6.4e-05 s⁻¹ |
| U45C U56C | 0.000492 ± 4.3e-05 s⁻¹ | 5500 ± 810 µM | 5.37e-05 ± 1.2e-05 s⁻¹ | 0.000149 ± 3e-05 s⁻¹ | 0.000319 ± 4.5e-05 s⁻¹ |  |  |
| U47A C68G | 4.89e-05 ± 9.9e-06 s⁻¹ |  | 4.99e-05 ± 1.2e-05 s⁻¹ | 6.81e-05 ± 1.2e-05 s⁻¹ | 3.56e-05 ± 9.2e-06 s⁻¹ |  |  |
| U46A U47C | 0.00192 ± 0.00044 s⁻¹ | 2240 ± 840 µM | 0.00034 ± 5.6e-05 s⁻¹ | 0.00121 ± 0.00021 s⁻¹ | 0.00157 ± 0.00019 s⁻¹ | 5.61e-05 ± 1.2e-05 s⁻¹ | 0.000141 ± 2.8e-05 s⁻¹ |
| U46A U47A | 0.00774 ± 0.0022 s⁻¹ | 2510 ± 920 µM | 0.00159 ± 0.00033 s⁻¹ | 0.00385 ± 0.00067 s⁻¹ | 0.00631 ± 0.0017 s⁻¹ | 0.000207 ± 4.9e-05 s⁻¹ | 0.000426 ± 6.1e-05 s⁻¹ |
| G44C C71U | 1.52e-05 ± 3.3e-06 s⁻¹ |  |  |  |  |  |  |
| G44C A53G | 0.000232 ± 7.9e-06 s⁻¹ | 3060 ± 220 µM | 3.96e-05 ± 1.4e-05 s⁻¹ | 0.000105 ± 1.9e-05 s⁻¹ | 0.000177 ± 3e-05 s⁻¹ |  |  |
| U45A C58G | 0.000316 ± 8.7e-05 s⁻¹ |  |  | 0.000129 ± 3.2e-05 s⁻¹ | 0.000222 ± 4.9e-05 s⁻¹ |  |  |
| U45A C58U | 0.000219 ± 4.8e-05 s⁻¹ | 4210 ± 1900 µM |  | 9.07e-05 ± 1.6e-05 s⁻¹ | 0.000149 ± 2.4e-05 s⁻¹ | < 1e-05 s⁻¹ |  |
| U45A C58A | 0.00117 ± 0.00038 s⁻¹ |  | 0.000188 ± 3.8e-05 s⁻¹ | 0.000822 ± 0.00019 s⁻¹ | 0.000803 ± 0.00016 s⁻¹ |  |  |
| U45C C67A | 0.00652 ± 0.00083 s⁻¹ | 2490 ± 470 µM | 0.00119 ± 0.00026 s⁻¹ | 0.00392 ± 0.0013 s⁻¹ | 0.00519 ± 0.001 s⁻¹ | 0.000122 ± 4.8e-05 s⁻¹ | 0.000424 ± 0.00012 s⁻¹ |
| G44A A53C | 0.000111 ± 2.5e-05 s⁻¹ |  | 4.9e-05 ± 2.1e-05 s⁻¹ | 5.83e-05 ± 1.3e-05 s⁻¹ | 0.0001 ± 1.9e-05 s⁻¹ |  |  |
| G44A A53U | 0.000232 ± 3.9e-05 s⁻¹ | 1820 ± 680 µM | 5.47e-05 ± 1.1e-05 s⁻¹ | 0.000174 ± 2.8e-05 s⁻¹ | 0.000182 ± 2.7e-05 s⁻¹ |  |  |
| U46A C70A | 0.000184 ± 2.2e-05 s⁻¹ | 633 ± 260 µM | 0.000115 ± 2.6e-05 s⁻¹ | 0.000146 ± 2.7e-05 s⁻¹ | 0.000167 ± 2.9e-05 s⁻¹ |  |  |
| G43U C68G | 0.00617 ± 0.0012 s⁻¹ | 527 ± 180 µM | 0.00304 ± 0.00052 s⁻¹ | 0.00416 ± 0.0011 s⁻¹ | 0.00756 ± 0.0013 s⁻¹ | 0.000533 ± 9.6e-05 s⁻¹ | 0.00129 ± 0.00028 s⁻¹ |
| G43U C68U | 0.00467 ± 0.00089 s⁻¹ | 1190 ± 320 µM | 0.00188 ± 0.00022 s⁻¹ | 0.00344 ± 0.00047 s⁻¹ | 0.00404 ± 0.0004 s⁻¹ | 0.000181 ± 1.5e-05 s⁻¹ | 0.000436 ± 4.8e-05 s⁻¹ |
| U46G U54G | 0.0123 ± 0.0017 s⁻¹ | 3110 ± 510 µM | 0.00224 ± 0.0004 s⁻¹ | 0.00479 ± 0.0013 s⁻¹ | 0.0102 ± 0.003 s⁻¹ | 0.000155 ± 2.6e-05 s⁻¹ | 0.000596 ± 0.00017 s⁻¹ |
| U46A G66C | 0.00211 ± 0.0008 s⁻¹ |  | 0.00053 ± 0.00011 s⁻¹ | 0.000776 ± 0.00018 s⁻¹ | 0.00237 ± 0.00038 s⁻¹ | 5.47e-05 ± 1.7e-05 s⁻¹ | 0.000161 ± 4.3e-05 s⁻¹ |
| U46A G66U | 0.0037 ± 0.001 s⁻¹ | 5940 ± 2100 µM | 0.000412 ± 7.3e-05 s⁻¹ | 0.00111 ± 0.00027 s⁻¹ | 0.00229 ± 0.00041 s⁻¹ | 5.04e-05 ± 2.3e-05 s⁻¹ | 8.12e-05 ± 1.9e-05 s⁻¹ |
| U45A A64C | 0.000366 ± 4.6e-05 s⁻¹ | 2520 ± 570 µM | 7.26e-05 ± 1.9e-05 s⁻¹ | 0.000193 ± 3.8e-05 s⁻¹ | 0.000277 ± 7.6e-05 s⁻¹ |  |  |
| U45G C71U | 0.00857 ± 0.0011 s⁻¹ | 2380 ± 450 µM | 0.00152 ± 0.00031 s⁻¹ | 0.00519 ± 0.00062 s⁻¹ | 0.00653 ± 0.0008 s⁻¹ | 0.000147 ± 1.7e-05 s⁻¹ | 0.000517 ± 8.8e-05 s⁻¹ |
